According to patent US10766960 (dated 2020):
Like-named read-outs stand apart in the source and are kept apart here. Each block holds one binder with its values, some of them ahead of it.

What was measured:
Assay in all cases: SPR
FcgRIIIa V [1] = target: T1, FcgRIIIa V (human, UniProt P08637)
FcgRIIa H [2] = target: T2, FcgRIIa H (human, UniProt P12318)
T2 chain: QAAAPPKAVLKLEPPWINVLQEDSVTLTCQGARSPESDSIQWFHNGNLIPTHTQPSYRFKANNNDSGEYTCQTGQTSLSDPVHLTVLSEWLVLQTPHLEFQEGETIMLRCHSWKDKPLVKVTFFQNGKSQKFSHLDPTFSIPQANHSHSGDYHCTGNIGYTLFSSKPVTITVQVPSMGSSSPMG

FcgRIIa R [3] = target: T3, FcgRIIa R (human, UniProt P12318)
T3 chain: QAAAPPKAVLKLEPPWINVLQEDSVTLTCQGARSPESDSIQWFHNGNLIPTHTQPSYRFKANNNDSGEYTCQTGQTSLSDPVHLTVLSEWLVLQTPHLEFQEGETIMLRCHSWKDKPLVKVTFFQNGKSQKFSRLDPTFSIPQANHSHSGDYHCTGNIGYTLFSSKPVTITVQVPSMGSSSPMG

FcgRIIIa F [4] = target: T4, FcgRIIIa F (human, UniProt P08637)
FcgRIIb [5] = target: T5, FcgRIIb (human, UniProt P31994)
T5 chain: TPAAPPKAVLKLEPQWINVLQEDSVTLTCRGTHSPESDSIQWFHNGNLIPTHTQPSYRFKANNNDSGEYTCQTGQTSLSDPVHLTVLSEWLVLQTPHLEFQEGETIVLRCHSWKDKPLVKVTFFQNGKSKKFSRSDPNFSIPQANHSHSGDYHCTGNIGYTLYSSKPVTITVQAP

FcgRIIIa F [6] = target: T4, FcgRIIIa F; remark: listed apart in the source
FcgRIIIa F [7] = target: T4, FcgRIIIa F; remark: listed apart in the source
FcgRIa [8] = target: T6, FcgRIa (human, UniProt P12314)
T6 chain: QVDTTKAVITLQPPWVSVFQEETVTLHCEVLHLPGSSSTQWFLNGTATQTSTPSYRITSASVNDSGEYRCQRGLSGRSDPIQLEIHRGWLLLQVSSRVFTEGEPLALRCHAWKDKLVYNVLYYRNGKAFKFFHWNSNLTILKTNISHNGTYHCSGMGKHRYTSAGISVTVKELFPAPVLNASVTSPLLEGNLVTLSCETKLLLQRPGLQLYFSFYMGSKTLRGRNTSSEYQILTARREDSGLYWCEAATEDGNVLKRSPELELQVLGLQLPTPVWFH

FcgRIIIa F [9] = target: T4, FcgRIIIa F; remark: listed apart in the source
FcgRIIIa V [10] = target: T1, FcgRIIIa V; remark: listed apart in the source
FcgRIIa R [11] = target: T3, FcgRIIa R
FcgRIIa H [12] = target: T2, FcgRIIa H
FcgRIIb [13] = target: T5, FcgRIIb
FcgRIIb [14] = target: T5, FcgRIIb
FcgRIIa H [15] = target: T2, FcgRIIa H
FcgRIIa R [16] = target: T3, FcgRIIa R
FcgRIa [17] = target: T6, FcgRIa
FcgRIIIa V [18] = target: T1, FcgRIIIa V; remark: listed apart in the source
FcgRIIIa F [19] = target: T4, FcgRIIIa F; remark: listed apart in the source

T1 sequence (P08637 17-208 F176V): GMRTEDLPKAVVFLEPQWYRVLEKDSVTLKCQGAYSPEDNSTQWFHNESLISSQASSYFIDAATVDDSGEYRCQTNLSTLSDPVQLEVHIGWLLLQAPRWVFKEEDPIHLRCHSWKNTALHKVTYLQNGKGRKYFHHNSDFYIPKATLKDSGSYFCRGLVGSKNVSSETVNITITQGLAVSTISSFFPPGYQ
T4 sequence (P08637 17-208): as the sequence (P08637 17-208 F176V) above, with V160F counted along it

Kd (FcgRIIIa V [1]): 53000 nM
Kd (FcgRIIa H [2]): 8300 nM
Kd (FcgRIIa R [3]): 850 nM
B1: IL6R-BP208/IL6R-L (antibody)
chain 1: QVQLQESGPGLVKPSETLSLTCAVSGHSISHDHAWSWVRQPPGEGLEWIGFISYSGITNYNPSLQGRVTISRDNSKNTLYLQMNSLRAEDTAVYYCARSLARTTAMDYWGEGTLVTVSSASTKGPSVFPLAPSSKSTSGGTAALGCLVKDYFPEPVTVSWNSGALTSGVHTFPAVLQSSGLYSLSSVVTVPSSSLGTQTYICNVNHKPSNTKVDKKVEPKSCDKTHTCPPCPAPDLLGDDSVFLFPPKPKDTLMISRTPEVTCVVVDVSDEDGEVKFNWYVDGVEVHNAKTKPREEQYNSTYRVVSVLTVLHQDWLNGKEYKCKVSNKALPRPIEKTISKAKGQPREPQVYTLPPSRDELTKNQVSLTCLVKGFYPSDIAVEWESNGQPENNYKTTPPVLDSDGSFFLYSKLTVDKSRWQQGNVFSCSVMHEALHNHYTQESLSLSP
chain 2: not shown

Kd (FcgRIIIa F [4]): 4.1 nM
Kd (FcgRIIb [5]): 1100 nM
Kd (FcgRIIIa F [6]): 4.7 nM
B2: GpH7-TA7/GpH7-B78/GpL16-k0 (antibody)
chain 1: QVQLVQSGAEVKKPGASVTVSCKASGYTFTDYEMHWIRQPPGEGLEWIGAIDPKTGDTAYSESFQDRVTLTADKSTSTAYMELSSLTSEDTAVYYCTRFYSYTYWGQGTLVTVSSASTKGPSVFPLAPSSKSTSGGTAALGCLVKDYFPEPVTVSWNSGALTSGVHTFPAVLQSSGLYSLSSVVTVPSSSLGTQTYICNVNHKPSNTKVDKKVEPKSCDKTHTCPPCPAPEYLWGPSVFLFPPKPKDTLMISRTPEVTCVVVDVSHEDPEVKFNWYVDGVEVHNAKTKPREEQYNATYRVVSVLTVLHQDWLNGKEYKCKVSNKALPAPIEKTISKAKGQPREPQVYTLPPSRKELTKNQVSLTCLVKGFYPSDIAVEWESNGQPENNYKTTPPVLDSDGSFFLYSKLTVDKSRWQQGNVFSCSVMHEALHNRYTQKSLSLSP
chain 2: QVQLVQSGAEVKKPGASVTVSCKASGYTFTDYEMHWIRQPPGEGLEWIGAIDPKTGDTAYSESFQDRVTLTADKSTSTAYMELSSLTSEDTAVYYCTRFYSYTYWGQGTLVTVSSASTKGPSVFPLAPSSKSTSGGTAALGCLVKDYFPEPVTVSWNSGALTSGVHTFPAVLQSSGLYSLSSVVTVPSSSLGTQTYICNVNHKPSNTKVDKKVEPKSCDKTHTCPPCPAPELLGGPDVFLFPPKPKDTLMISRTPEVTCVVVDVSHEDPEVKFNWYVDGVEVHNAKTKPREEQYNSTYRVVSVLTVLHQDWLNGKEYKCKVSNKALPLPEEKTISKAKGQPREPQVYTLPPSRDELTKNQVSLTCLVKGFYPSDIAVEWESNGQPENNYKTTPPVLDSDGSFFLYSKLTVDKSRWQQGNVFSCSVMHEALHNHYTQESLSLSP
chain 3: DIVMTQSPLSLPVTPGEPASISCQASESLVHSNRNTYLHWYLQKPGQSPQLLIYKVSNRFSGVPDRFSGSGSGTDFTLKISRVEAEDVGVYYCSQNTHVPPTFGQGTKVEIERTVAAPSVFIFPPSDEQLKSGTASVVCLLNNFYPREAKVQWKVDNALQSGNSQESVTEQDSKDSTYSLSSTLTLSKADYEKHKVYACEVTHQGLSSPVTKSFNRGEC

Kd (FcgRIIIa F [4]): 1.3 nM
B3: GpH7-TA22/GpH7-B78/GpL16-k0 (antibody)
chain 1: QVQLVQSGAEVKKPGASVTVSCKASGYTFTDYEMHWIRQPPGEGLEWIGAIDPKTGDTAYSESFQDRVTLTADKSTSTAYMELSSLTSEDTAVYYCTRFYSYTYWGQGTLVTVSSASTKGPSVFPLAPSSKSTSGGTAALGCLVKDYFPEPVTVSWNSGALTSGVHTFPAVLQSSGLYSLSSVVTVPSSSLGTQTYICNVNHKPSNTKVDKKVEPKSCDKTHTCPPCPAPEYLWGPDVFLFPPKPKDTLMISRTPEVTCVVVDVSHEDPEVKFNWYVDGVEVHNAKTKPREEQYNATYRVVSVLTVLHQDWLNGKEYKCKVSNKALPAPIEKTISKAKGQPREPQVYTLPPSRKELTKNQVSLTCLVKGFYPSDIAVEWESNGQPENNYKTTPPVLDSDGSFFLYSKLTVDKSRWQQGNVFSCSVMHEALHNRYTQKSLSLSP
chain 2: QVQLVQSGAEVKKPGASVTVSCKASGYTFTDYEMHWIRQPPGEGLEWIGAIDPKTGDTAYSESFQDRVTLTADKSTSTAYMELSSLTSEDTAVYYCTRFYSYTYWGQGTLVTVSSASTKGPSVFPLAPSSKSTSGGTAALGCLVKDYFPEPVTVSWNSGALTSGVHTFPAVLQSSGLYSLSSVVTVPSSSLGTQTYICNVNHKPSNTKVDKKVEPKSCDKTHTCPPCPAPELLGGPDVFLFPPKPKDTLMISRTPEVTCVVVDVSHEDPEVKFNWYVDGVEVHNAKTKPREEQYNSTYRVVSVLTVLHQDWLNGKEYKCKVSNKALPLPEEKTISKAKGQPREPQVYTLPPSRDELTKNQVSLTCLVKGFYPSDIAVEWESNGQPENNYKTTPPVLDSDGSFFLYSKLTVDKSRWQQGNVFSCSVMHEALHNHYTQESLSLSP
chain 3: DIVMTQSPLSLPVTPGEPASISCQASESLVHSNRNTYLHWYLQKPGQSPQLLIYKVSNRFSGVPDRFSGSGSGTDFTLKISRVEAEDVGVYYCSQNTHVPPTFGQGTKVEIERTVAAPSVFIFPPSDEQLKSGTASVVCLLNNFYPREAKVQWKVDNALQSGNSQESVTEQDSKDSTYSLSSTLTLSKADYEKHKVYACEVTHQGLSSPVTKSFNRGEC

Kd (FcgRIIIa F [7]): 79 nM
Kd (FcgRIa [8]): 0.43 nM
Kd (FcgRIIIa F [9]): 78 nM
Kd (FcgRIIIa V [10]): 6.9 nM
Kd (FcgRIIa R [11]): 490 nM
Kd (FcgRIIa H [12]): 780 nM
Kd (FcgRIIb [13]): 2600 nM
B4: H240-afucosyl_G1d/L73-k0 (antibody)
chain 1: not shown
chain 2: DIQMTQSPSSLSASVGDRVTITCRASQDIHKYIAWYQQKPGQAPRLLIQYTSTLQPGVPSRFSGSGSGTDYTFTISSLQPEDIATYYCLQYEQLRTFGGGTKVEIKRTVAAPSVFIFPPSDEQLKSGTASVVCLLNNFYPREAKVQWKVDNALQSGNSQESVTEQDSKDSTYSLSSTLTLSKADYEKHKVYACEVTHQGLSSPVTKSFNRGEC

Kd (FcgRIIb [14]): 380 nM
Kd (FcgRIIa H [15]): 46 nM
Kd (FcgRIIa R [16]): 29 nM
Kd (FcgRIa [17]): 0.098 nM
Kd (FcgRIIIa V [18]): 6.8 nM
Kd (FcgRIIIa F [19]): 21 nM
B5: H240-Kn037/H240-Hl036/L73-k0 (antibody)
chain 1: QDQLVQSGAEVKKPGASVKVSCKASGFNIKDTYIQWVRQAPGQGLEWMGRIDPLRKQTKYREKFEGRVTITADTSTNTAYMELSSLRSEDTAVYYCVRSGREFDYWGQGTLVTVSSASTKGPSVFPLAPSSKSTSGGTAALGCLVKDYFPEPVTVSWNSGALTSGVHTFPAVLQSSGLYSLSSVVTVPSSSLGTQTYICNVNHKPSNTKVDKKVEPKSCDKTHTCPPCPAPELLAGPDVFLFPPKPKDTLMISRTPEVTCVVVDVSHEDPEVKFNWYVDGVEVHNAKTKPREEQYNSTYRVVSVLTVLHQDWLNGKEYKCKVSNKALPAPEEKTISKAKGQPREPQVCTLPPSRDELTKNQVSLWCLVKGFYPSDIAVEWESNGQPENNYKTTPPVLDSDGSFFLYSKLTVDKSRWQQGNVFSCSVMHEALHNHYTQKSLSLSP
chain 2: QDQLVQSGAEVKKPGASVKVSCKASGFNIKDTYIQWVRQAPGQGLEWMGRIDPLRKQTKYREKFEGRVTITADTSTNTAYMELSSLRSEDTAVYYCVRSGREFDYWGQGTLVTVSSASTKGPSVFPLAPSSKSTSGGTAALGCLVKDYFPEPVTVSWNSGALTSGVHTFPAVLQSSGLYSLSSVVTVPSSSLGTQTYICNVNHKPSNTKVDKKVEPKSCDKTHTCPPCPAPELLAGPDVFLFPPKPKDTLMISRTPEVTCVVVDVSHEDPEVKFNWYVDGVEVHNAKTKPREEQYNSTYRVVSVLTVLHQDWLNGKEYKCKVSNKALPAPEEKTISKAKGQPREPQVYTLPPSRCELTKNQVSLSCAVKGFYPSDIAVEWESNGQPENNYKTTPPVLDSDGSFFLVSKLTVDKSRWQQGNVFSCSVMHEALHNHYTQKSLSLSP
chain 3: DIQMTQSPSSLSASVGDRVTITCRASQDIHKYIAWYQQKPGQAPRLLIQYTSTLQPGVPSRFSGSGSGTDYTFTISSLQPEDIATYYCLQYEQLRTFGGGTKVEIKRTVAAPSVFIFPPSDEQLKSGTASVVCLLNNFYPREAKVQWKVDNALQSGNSQESVTEQDSKDSTYSLSSTLTLSKADYEKHKVYACEVTHQGLSSPVTKSFNRGEC
